Reference: article PMC11109965, “Correction of non-random mutational biases along a linear bacterial chromosome by the mismatch repair endonuclease NucS” (Nucleic Acids Research, 2024)

B1: β-clamp from Streptomyces ambofaciens (β-clampSam), N-terminal His-tagged (natural protein)
chain: MKIRVERDVLAEAVAWAARSLPARPPAPVLAGLLLKAEEGQLSLSSFDYEVSARVSVEAEVEEEGTVLVSGRLLADISRALPNRPVEISTDGVRATVVCGSSRFTLHTLPVEEYPALPQMPEATGTVPGEVFAAAVQQVAIAAGRDDTLPVLTGVRIEIEGDSVTLASTDRYRFAVREFLWKPENPEVSAVALVPAKTLQDTAKALTSGDQVILALAGSGAGEGLIGFEGAGRRTTTRLLEGDLPKYKTLFPTEFNSIAVIETAPFVEAVKRVALVAERNTPVRLSFEQGVLILEAGSSDDAQAVERVDAQLEGDDISIAFNPTFLLDGLSAIDSPVAQLSFTTSTKPALLSGKPAVDAEADEAYKYLIMPVRLSG
B2: NucS from Streptomyces ambofaciens (NucSSam), N-terminal His-tagged (enzyme, Streptomyces ambofaciens ATCC23877, UniProt A0ABN4PBG3 1-223, looked up)
chain: MRLVIARCSVDYAGRLTAHLPSAPRLILVKADGSVSIHADDRAYKPLNWMSPPCTLKEGTGEEEGVWTVVNKAGEKLIITMEEILHDSSHELGVDPGLIKDGVEAHLQELLADRIETLGEGYTLIRREYMTAIGPVDILCRDAEGRTVAVEIKRRGEIDGVEQLTRYLELLNRDPHLAPVRGVFAAQEIKPQARVLATDRGIGCQVLDYNAMRGIEDDKLRLF
notes: 223 amino acids; calculated molecular weight 24762.44 Da; Found as monomer and dimer in solution, the monomer prevailing; the monomeric fraction was used in the cleavage assays; also called EndoMS/NucS; His-tagged NucSSam; not shown: His-tag, N-terminal, kept

Tests used:
[1] = molecular target: the molecule itself; assay: SEC + SEC-MALS; purified His-tagged β-clampSam; gel filtration (single peak, about 97 kDa) and SEC-MALS (about 84 kDa)
[2] = molecular target: the molecule itself; assay: SEC-MALS; fractions of the main gel filtration peak of NucSSam; molecular weights determined on the right side of the peaks because peak homogeneity was moderate

| Protein | stoichiometry N [1] | stoichiometry N [2] |
| --- | --- | --- |
| B1 | 2 | – |
| B2 | – | 2 |
